Here are results for nine molecules from patent US6358687, “Methods for monitoring the binding of A1/UP1 to single-stranded nucleic acid sequences, and to measure the effect of this binding on telomere extension and protection” (Telogene Inc.).

For data set [1], the target named is T1, UP1 (hnRNP A1 fragment) (UniProt P49312 P49312:1-196). Kind of data set: EMSA; not shown. To be noted: tags: GST removed by thrombin.
The target of data set [2] is T2, GST-UP1 (hnRNP A1 fragment) (UniProt P49312 P49312:1-196). Kind of data set: EMSA; not shown. To be noted: tags: GST; label: 5'-32P. The protocol: (§1) Gel-shift assays were performed using single-stranded or partially double-stranded duplex substrates. A, the concentrations of GST-UP1 (G-UP1) used for each set of DNA substrate were 0.25, 0.5, 1.0 and 0 µM. Duplex formation was accomplished by incubating an equimolar amount of unlabeled Tb with labeled b' (or unlabeled aT with labeled a'). The partial duplex substrates migrate slightly above the position of labeled Tb and aT. […] B, gel shift assays were accomplished in the presence of an excess of cold oligonucleotides as competitor. Labeled Tb or aT (0.1 µM) was used in combination with cold Tb or aT (0, 0.625, 1.25, 2.5 and 5.0 µM) and G-UP1 (0.3 µM). (Open bar) vertebrate telomeric repeats; (solid bar) nontelomeric DNA. The asterisk (*) indicates which oligonucleotide was ^32P-labeled at its 5' end. Complexes were fractionated on 5% non-denaturating polyacrylamide gels. The position of the free and complexed oligonucleotides is shown.
T2 sequence (P49312 1-196, one chain of several): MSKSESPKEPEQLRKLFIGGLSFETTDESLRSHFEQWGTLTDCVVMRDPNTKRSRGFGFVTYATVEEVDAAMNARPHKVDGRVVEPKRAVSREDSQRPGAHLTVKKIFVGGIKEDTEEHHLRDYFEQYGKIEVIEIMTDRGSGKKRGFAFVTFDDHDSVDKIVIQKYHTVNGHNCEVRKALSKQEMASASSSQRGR

Data set [3] deals with T2, GST-UP1 (hnRNP A1 fragment). Kind of data set: EMSA; 0.25-1.0 uM protein. The conditions noted are these: tags: GST; label: 5'-32P. On the procedure:
as §1

For data set [4] the target is unchanged. Kind of data set: EMSA; legend titled binding to single-stranded telomeric extensions in partial duplex. To be noted: tags: GST. On the procedure: as §1
Data set [5] has as its target T1, UP1 (hnRNP A1 fragment). Kind of data set: EMSA; 1-4 uM protein, 0.5 uM TS10. To be noted: tags: GST removed by thrombin; label: 5'-32P. On the procedure: (§2) GST-UP1 (G-UP1) at concentrations of 0, 0.2, 0.5, 1.0, 2.0 and 4.0 µM, or UP1 at concentrations of 0, 1.0, 2.0 and 4.0 µM, were incubated with TS10 (0.5 µM). Complexes were fractionated on 5% non-denaturating polyacrylamide gels. The position of complexes and free TS10 is shown.

The target in data set [6] is T2, GST-UP1 (hnRNP A1 fragment). Kind of data set: EMSA; 0.2-4.0 uM protein, 0.5 uM TS10; 2.5 mM MgCl2, 75 mM KCl, 30 C. The conditions noted are these: tags: GST; label: 5'-32P. On the procedure: as §2

T1 sequence (P49312 1-196, one chain of several): as above

In the case of GGGGGTGGGAGCAGGGGAGG (ssDNA) [Ne4], the binding result with UP1 (hnRNP A1 fragment) [1] was “no binding”.

Take CCAGGACACTAGGCC (ssDNA) [a']: the binding result in data set [2] is reported as “no binding”.

In the case of TAGGGTTAGGGTTAGGGTGGTCCTGTGATCCGG (ssDNA) [Tb], the binding result in data set [3] was “binds”.

B1: Tb/b' partial duplex (mixed)
DNA 1: TAGGGTTAGGGTTAGGGTGGTCCTGTGATCCGG
DNA 2: CCGGATCACAGGACC
In the case of B1, the binding result in data set [4] (label: 5'-32P on b', 5' single-stranded telomeric overhang) is reported as “binds”.

B2: TS10 (ssDNA)
DNA: TTAGGGTTAGGGTTAGGGTTAGGGTTAGGGTTAGGGTTAGGGTTAGGGTTAGGGTTAGGG
For the molecule B2, the binding result (in the data set with UP1 (hnRNP A1 fragment) [5]; in data set [6]) was “binds” in each case.

As for GGTTAGGGTTAGGGTTAG (ssDNA) [Tel2], the binding result with UP1 (hnRNP A1 fragment) [1] is given as “binds”.

Take GGCCTAGTGTCCTGGTAGGGTTAGGGTTAGGGT (ssDNA) [aT]: the binding result in data set [3] is given as “binds”.

B3: aT/a' partial duplex (mixed)
DNA 1: GGCCTAGTGTCCTGGTAGGGTTAGGGTTAGGGT
DNA 2: CCAGGACACTAGGCC
Turning to B3, the binding result in data set [4] (label: 5'-32P on a', 3' single-stranded telomeric overhang) is “binds”.

Take CCGGATCACAGGACC (ssDNA) [b']: the binding result in data set [2] is recorded as “no binding”.
